Data from patent US20260167712A1, “INHIBITORY ANTIBODIES AGAINST GLUT1” (ICOSAGEN CELL FACTORY OÜ, priority 2022, published 2026).
“Also recorded” adds a separate entry of the source.

B1: 2E5 #22 (antibody, V domains shown)
VH: AVTLDESGGGLQTPGGALSLVCKASGFTFSTKGMGWVRQTPGKGLEWVAGISSMRRYTYYAPAVKGRATISRDNGQSTVRLQLSSLRAEDSGTYYCARDATYCSWTTSTCGWSGGTIDAWGHGTEVIVSS
VL: ALTQPSSVSANLGGTVKITCSGGSGNYGWYQQKSPGSVPVTVIYSNDKRPSDIPSRFSGSGSGSTATLTITGVQVEDEAVYFCGSRDSSYVGLFGAGTTLTVL
B2: 6F12 #33 (antibody, V domains shown)
VH: AVTLDESGGGLQTPGGALSLVCKASGFTFSDHAIFWVRQAPDKGLEFVAAISSGTGSWTAYATVVKGRATISRDNGQSTVRLQLNNLRAADTATYYCAKGAGSACCYAGSIDAWGHGTEVIVSS
VL: ALTQPSSVSANPGETVKITCSGGSSSSYYGWYQQKSPGSAPVTLIYYNDKRPSDIPSRFSGSKSGSTATLTITGVQVEDEAVYYCGTGDGSFAIFGAGTTLTVL

Assays:
[1] = test system: MCF7 breast cancer cells; experiment: Cell proliferation inhibition assay (Incucyte), MCF7; format: cell-based; details: for MCF7 cell growth in combination with phenformin: co-treatment with phenformin, FIGS. 7 and 9
Protocol: (§1) Incucyte S3 Live cell analysis instrument and Cell-by-Cell analysis software module (Sartorius) were used to evaluate the effect of anti-SLC2A1 antibodies on cancer cell proliferation label-free (FIGS. 5-11). MCF7, PC3 or PANC1 or MIAPACA2 cells were plated on flat bottom tissue culture 96-well plate in […] medium (Ximbio) supplemented with 2.5% FBS. Cells were incubated overnight and 0.02 nM to 13 μM anti-SLC2A1 antibodies, anti-HEL isotype control, PBS or BAY-876 were added to the cells alone or in combination with metformin (CaymanChem), phenformin (Sigma Aldrich) or IACS-010759 (CaymanChem). Cell confluence or object count was measured for 24 to 96 hours with Incucyte S3 and normalized to timepoint 0 h or 4h. anti-SLC2A1 antibodies inhibit cancer cell proliferation alone and especially in combination with complex-I inhibitors metformin, phenformin and IACS-010759. Exemplary antibodies 1G2 #9, 2A2 #12, 2E5 #22, 5G5 #30, 6F12 #33, 7C3 #39 and R14 #54 were used in proliferation assays.

[2] = molecular target: T1, SLC2A3 pseudotyped VLPs (UniProt P11169 1-496); experiment: ELISA on VLPs coated at 5 ug/mL, compared with MOCK VLPs
T1 construct: also called SLC2A3 VLPs; GLUT3
T1 sequence: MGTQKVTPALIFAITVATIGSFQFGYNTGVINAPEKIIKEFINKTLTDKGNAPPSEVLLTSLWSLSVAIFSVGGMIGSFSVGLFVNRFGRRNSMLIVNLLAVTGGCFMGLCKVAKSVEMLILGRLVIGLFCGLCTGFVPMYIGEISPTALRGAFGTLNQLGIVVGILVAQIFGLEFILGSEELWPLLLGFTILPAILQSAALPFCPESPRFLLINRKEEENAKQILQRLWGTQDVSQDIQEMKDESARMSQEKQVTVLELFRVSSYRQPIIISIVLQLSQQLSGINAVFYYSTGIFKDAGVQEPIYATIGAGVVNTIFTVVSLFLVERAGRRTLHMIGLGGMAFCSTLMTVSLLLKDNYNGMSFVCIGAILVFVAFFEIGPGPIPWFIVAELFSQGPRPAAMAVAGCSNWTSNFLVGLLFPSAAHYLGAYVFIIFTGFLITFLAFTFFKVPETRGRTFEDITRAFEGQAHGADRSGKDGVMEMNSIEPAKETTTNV

[3] = molecular target: T2, SLC2A2 pseudotyped VLPs (UniProt P11168 1-524); experiment: as above
T2 construct: also called SLC2A2 VLPs; GLUT2
T2 sequence: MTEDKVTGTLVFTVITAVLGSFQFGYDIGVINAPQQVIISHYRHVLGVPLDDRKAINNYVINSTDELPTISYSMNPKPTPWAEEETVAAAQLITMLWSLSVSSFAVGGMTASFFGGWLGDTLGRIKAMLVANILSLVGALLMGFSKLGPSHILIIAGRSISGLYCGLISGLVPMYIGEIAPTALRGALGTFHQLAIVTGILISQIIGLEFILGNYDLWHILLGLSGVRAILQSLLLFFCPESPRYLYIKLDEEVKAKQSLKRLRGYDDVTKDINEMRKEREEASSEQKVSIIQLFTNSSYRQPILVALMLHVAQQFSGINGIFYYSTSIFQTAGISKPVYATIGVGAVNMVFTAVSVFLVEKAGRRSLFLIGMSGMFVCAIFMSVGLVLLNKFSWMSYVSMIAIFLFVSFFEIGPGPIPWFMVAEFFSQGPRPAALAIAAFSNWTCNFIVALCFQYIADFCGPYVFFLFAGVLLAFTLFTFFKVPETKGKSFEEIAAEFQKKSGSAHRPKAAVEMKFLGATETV

[4] = test system: PC3 prostate cancer cell line; experiment: Cell proliferation inhibition assay (Incucyte), PC3; format: cell-based; details: co-treatment with IACS-010759, compared to single agents, FIG. 11A
Protocol: as §1

[5] = molecular target: T3, SLC2A2 pseudotyped VLPs (Homo sapiens, UniProt P11168); experiment: ELISA-based VLP binding assay, SLC2A2; details: compared to MOCK VLPs, FIG. 3
T3 sequence (P11168 1-524): T2 sequence
Protocol: An ELISA-based VLP binding assay was carried out to compare the EC50 values of antibody clones (FIG. 1). Similarly, ELISA based VLP binding assay was performed to compare the binding of the antibodies to different glucose transporters (FIG. 3). MaxiSorp™ high-capacity binding ELISA plate (Thermo Fisher Scientific, US) were coated with 5 μg/mL SLC2A1, SLC2A2, SLC2A3, SLC2A4 pseudotyped VLPs or MOCK VLPs in PBS overnight. The plate was washed and blocked for 1 h with 0.05% Tween 20, 2% BSA in PBS. Serial dilutions of antibodies were incubated on a washed plate for 1 hour, followed by a 1-hour incubation with goat anti-human IgG horse radish peroxidase (HRP) conjugated (Invitrogen) antibody. TMB (3,3′,5,5′-Tetramethylbenzidine) Solution VII (Biopanda Diagnostics) was used as a substrate for HRP and 0.5 M H2SO4 was used as stop solution. After every step, the wells were washed with 0.05% Tween 20, 0.1% Proclin 300 PBS solution. Absorption at 450 nm was measured with Thermo Scientific™ Multiskan™ FC Microplate Photometer. Exemplary wise used antibodies 1G2 #9, 2A2 #12, 2E5 #22, 5G5 #30, 6F12 #33, 7C3 #39 all bound SLC2A1 VLPs with low nanomolar EC50 values (FIG. 1).

[6] = test system: MIAPACA2 pancreatic cancer cell line; experiment: Cell proliferation inhibition assay (Incucyte), MIAPACA2; format: cell-based; details: co-treatment with IACS-010759, compared to single agents, FIG. 11C
Protocol: as §1

[7] = test system: PANC1 pancreatic cancer cell line; experiment: Cell proliferation inhibition assay (Incucyte), PANC1; format: cell-based; details: co-treatment with IACS-010759, compared to single agents, FIG. 11B
Protocol: as §1

[8] = test system: MiaPaca2 xenograft tumors; experiment: Antitumor efficacy against MiaPaca2 xenograft tumors; format: in vivo, mice; details: 6F12 #33 200 ug per mouse IP every 72 h plus daily Phenformin 20 mg/kg IP, versus phenformin alone, FIG. 12A
Text: (§2) Hsd:Athymic Nude-Foxn1^nu mice (10 per group) were inoculated with 5e6 MiaPaca2 cells/mouse subcutaneously.

[9] = Body weight in MiaPaca2 xenograft study; format: in vivo, mice; details: during treatments, FIG. 12B
Text: as §2

Molecule | MCF7 cell growth (confluence), single agent ([1]; alone, Incucyte) | MCF7 cell growth in combination with phenformin [1] | binding result [2] | binding result [3] | PC3 cell growth in combination with IACS-010759 [4] | binding to SLC2A2 VLPs [5] | MIAPACA2 cell growth in combination with IACS-010759 [6] | MCF7 cell growth in combination with IACS-010759 ([1]; co-treatment with IACS-010759, FIG. 8) | MCF7 cell growth in combination with metformin ([1]; co-treatment with metformin, FIG. 6) | PANC1 cell growth in combination with IACS-010759 [7] | tumor growth, cotreatment with phenformin [8] | body weight [9]
B1 | only a modest inhibition | completely inhibit; also recorded: most potent growth inhibitors | no binding | no binding | strong synergistic growth inhibition | did not bind; also recorded: Some binding | – | – | – | – | – | –
B2 | – | completely inhibit; also recorded: drastically inhibited; also recorded: most potent growth inhibitors | no binding | no binding | – | did not bind | dramatic growth reduction | drastically inhibited | drastically inhibited | dramatic growth reduction | statistically significant tumor growth inhibition | No changes; also recorded: remained unchanged
